{"source": "patent US20250059270A1", "binders": {"B1": {"name": "Tocilizumab (antibody, part only; not given: constant regions, V domains shown, not shown: another chain or arm of the molecule)", "VH": "QVQLQESGPGLVRPSQTLSLTCTVSGYSITSDHAWSWVRQPPGRGLEWIGYISYSGITTYNPSLKSRVTMLRDTSKNQFSLRLSSVTAADTAVYYCARSLARTTAMDYWGQGSLVTVSS", "VL": "DIQMTQSPSSLSASVGDRVTITCRASQDISSYLNWYQQKPGKAPKLLIYYTSRLHSGVPSRFSGSGSGTDFTFTISSLQPEDIATYYCQQGNTLPYTFGQGTKVEIK"}}, "key": {"hyper IL-6": {"target": "hyper IL-6", "assay": "cell-based or functional assay"}, "[1]": {"target": "human IL-6R on HEK-Blue IL6 reporter cells (human) (UniProt P08887)", "sequence (P08887 20-468)": "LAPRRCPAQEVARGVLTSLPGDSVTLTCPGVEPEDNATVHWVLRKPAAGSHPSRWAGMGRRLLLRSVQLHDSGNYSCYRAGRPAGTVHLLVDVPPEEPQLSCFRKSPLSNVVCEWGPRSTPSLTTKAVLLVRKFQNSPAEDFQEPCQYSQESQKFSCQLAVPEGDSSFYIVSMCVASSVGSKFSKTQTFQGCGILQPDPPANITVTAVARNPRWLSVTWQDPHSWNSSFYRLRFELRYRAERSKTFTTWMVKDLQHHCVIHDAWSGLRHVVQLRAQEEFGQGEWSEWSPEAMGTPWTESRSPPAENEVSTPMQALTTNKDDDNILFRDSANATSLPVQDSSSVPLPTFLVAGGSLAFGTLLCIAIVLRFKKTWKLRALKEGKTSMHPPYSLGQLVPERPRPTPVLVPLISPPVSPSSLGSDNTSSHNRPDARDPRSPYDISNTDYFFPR", "assay": "cell-based or functional assay"}}}
{"binder": "B1", "values": [{"measurement": "trans-signaling, HEK-Blue IL6 cells, 200 pM hyper IL-6", "setting": "hyper IL-6", "value": "> 1", "unit": "µM"}, {"measurement": "IC50, HEK-Blue IL6 reporter cells, 20 pM IL-6", "setting": "[1]", "value": 1490, "unit": "pM"}, {"measurement": "IC50, cis-signaling, HEK-Blue IL6 cells, 20 pM free IL-6", "setting": "[1]", "value": 12.9, "unit": "nM"}, {"measurement": "IC90, HEK-Blue IL6 reporter cells, 20 pM IL-6", "setting": "[1]", "value": 23700, "unit": "pM"}]}
